Assay results taken from patent publication US20260250410A1 (SICHUAN HUIYU PHARMACEUTICAL, published 2026).

T1: human CDCP1 on tumor cells (human, UniProt Q9H5V8 30-836)
T1 sequence (looked up): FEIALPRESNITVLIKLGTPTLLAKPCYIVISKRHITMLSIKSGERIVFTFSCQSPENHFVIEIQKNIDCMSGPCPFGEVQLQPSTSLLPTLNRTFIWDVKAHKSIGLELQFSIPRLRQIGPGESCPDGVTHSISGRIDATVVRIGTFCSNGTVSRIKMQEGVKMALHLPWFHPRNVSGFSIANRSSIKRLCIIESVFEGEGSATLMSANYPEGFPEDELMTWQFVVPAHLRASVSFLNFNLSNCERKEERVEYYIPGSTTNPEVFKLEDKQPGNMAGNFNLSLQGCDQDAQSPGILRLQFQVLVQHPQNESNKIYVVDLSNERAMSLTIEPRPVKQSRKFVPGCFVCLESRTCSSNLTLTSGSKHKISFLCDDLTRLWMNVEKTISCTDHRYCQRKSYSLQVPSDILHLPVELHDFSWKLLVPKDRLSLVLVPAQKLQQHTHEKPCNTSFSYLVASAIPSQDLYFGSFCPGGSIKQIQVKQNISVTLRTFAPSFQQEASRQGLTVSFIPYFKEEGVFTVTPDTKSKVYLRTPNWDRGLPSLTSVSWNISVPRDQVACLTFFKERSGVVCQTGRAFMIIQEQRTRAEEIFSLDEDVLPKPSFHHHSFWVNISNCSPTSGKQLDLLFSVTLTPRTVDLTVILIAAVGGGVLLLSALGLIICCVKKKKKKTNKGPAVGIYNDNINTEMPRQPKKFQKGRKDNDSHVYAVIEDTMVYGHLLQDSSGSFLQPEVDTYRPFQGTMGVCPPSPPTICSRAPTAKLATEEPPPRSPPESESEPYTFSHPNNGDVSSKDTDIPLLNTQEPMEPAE

T2: HuCDCP1-C (human, UniProt Q9H5V8 30-667)
T2 construct: range 30-667; expressed in HEK-293T, purified by Fc/his tag; also called human CDCP1-C; full-length extracellular domain of human CDCP1; not shown: Fc or his tag
T2 sequence (looked up): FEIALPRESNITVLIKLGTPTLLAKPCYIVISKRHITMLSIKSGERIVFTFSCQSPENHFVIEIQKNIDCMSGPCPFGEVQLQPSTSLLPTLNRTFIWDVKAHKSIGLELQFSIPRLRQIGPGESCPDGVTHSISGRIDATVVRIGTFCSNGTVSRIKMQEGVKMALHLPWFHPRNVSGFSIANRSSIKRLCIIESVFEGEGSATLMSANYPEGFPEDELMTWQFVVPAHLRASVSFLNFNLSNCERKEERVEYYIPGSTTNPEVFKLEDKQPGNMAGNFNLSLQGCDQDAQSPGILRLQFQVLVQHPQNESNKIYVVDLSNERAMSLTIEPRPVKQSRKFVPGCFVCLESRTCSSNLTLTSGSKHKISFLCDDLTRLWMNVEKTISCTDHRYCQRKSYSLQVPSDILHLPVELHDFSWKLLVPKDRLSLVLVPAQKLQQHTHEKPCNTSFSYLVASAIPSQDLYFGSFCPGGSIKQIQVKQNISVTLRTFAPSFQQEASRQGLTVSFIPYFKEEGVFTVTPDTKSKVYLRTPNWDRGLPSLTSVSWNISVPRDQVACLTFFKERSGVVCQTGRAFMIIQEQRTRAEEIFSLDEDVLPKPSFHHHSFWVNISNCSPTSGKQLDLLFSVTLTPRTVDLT


What was measured:
[1] = target: T1, human CDCP1 on tumor cells; assay: cell-based or functional assay
HuCDCP1-C = target: T2, HuCDCP1-C; assay: SPR (Caterra), antigen immobilized
Procedure: The humanized anti-CDCP1 antibodies obtained from Example 11 were subjected to gene cloning, constructed into pTT5 expression vector for a small amount of expression in CHO cells (Expi-CHOS: Gibco A29127), and purified with an Fc affinity column (AT Protein A Diamond Plus. No. AA402312). Antibody purity was analyzed by HPLC and determined by Nanodrop. High-throughput affinity assay was carried out for a small amount of antibodies by Caterra.

Row | Binder | IC50 (nM), killing of HCT116 cells (120 h), CellTiter-Glo [1] [nM] | IC50 (nM), killing of MDA-MB-231 cells (120 h), CellTiter-Glo [1] [nM] | IC50 (nM), killing of PC3 cells (96 h), CellTiter-Glo [1] [nM] | Kd (HuCDCP1-C) [nM] | koff (HuCDCP1-C) [s⁻¹] | kon (HuCDCP1-C) [M⁻¹ s⁻¹]
1 | 5B8-MMAE (antibody, V domains shown, vc-MMAE coupled after reduction, sites not stated; DAR 3.85) VH: EVQLKESGGGLVQPGGSLRISCATSGLTFTHYHMSWVRQPPGKAPEWLAIIRNKAYGYTTDYSASVRGRFTISRDDSQSILYLQMNTLRAEDSATYYCVREGGYGYDGTFAYWGQGTTVTVSS VL: not shown | 11.7 | > 200 | 0.014 |  |  | 
2 | 10D2-MMAE (antibody, V domains shown, vc-MMAE coupled after reduction, sites not stated; DAR 3.5) VH: EVQLQQSGPELKKPGETVKISCKASGYTFTDYSMHWVKQAPGKGLKWMGWINTETGQPTYADDFKGRFAFSLETSASSAYLQINNLKNEDTATYFCTRTFYYDYVGDYWGQGTTVTVSS VL: DIVMTQSHKFMSTSVGDRVSITCKASQDVSTAVAWYRQKPGQSPKLLIYWASTRHTGVPDRLTGSGSGTDFALTINSVQAEDLALYYCQQHSSTPYTFGGGTKLEIK | 11.4 | > 200 | 0.0164 |  |  | 
3 | 8C9-MMAE (antibody, V domains shown, vc-MMAE coupled after reduction, sites not stated; DAR 3.44) VH: EVQLKESGGGLVQPGGSLRISCATSGLTFTHYHMSWVRQPPGKAPEWLAIIRNKAYGYTTDYSASVRGRFTISRDDSQSILYLQMNTLRPEDSATYYCVREGGYGYDGTFAYWGQGTTVTVSS VL: not shown | 13 | > 40 | 0.0184 |  |  | 
4 | 8E5-MMAE (antibody, V domains shown, vc-MMAE coupled after reduction, sites not stated; DAR 3.65) VH: EVQLKESGPELKKPGETVKISCKASGYTLTDFSMHWLKQAPGKGLKWMGWINTETGAPTYADDFKGRFALSLDTSANTAYLQINNLKNEDTATYFCSRGRDYDPHFDYWGQGTTVTVSS VL: EIVLTQSPATLSVTPGDRVSLSCRASQSISDFLHWYQQRSHESPRLLIKYASQSISGIPSRFGGSGSGSDFTLNINTVEPEDVGMYYCQSAHSFPYTFGGGTKLEIK | 10.6 | > 40 | 0.0205 |  |  | 
5 | 3C11-MMAE (antibody, V domains shown, vc-MMAE coupled after reduction, sites not stated; DAR 3.48) VH: EVQLQQSGTVLARPGASVKMSCKASGYNFISYWLHWIKQRPGQGLEWIGGIYPGNTDTTYNQKFKGKAKVTAVTSATTAYMELSSLTNEDSAVYYCIRYDYDRGMDYWGQGTTVTVSS VL: DIQMTQSPSSFSVSLGDRVTITCRASEDIYYRLAWYQQKPGNAPRLLISGATALETGVPSRFSGSGSGKDYTLSITSLQTEDVATYYCQHYWNIPWTFGGGTKLEIK | 2.33 | > 40 | 0.0119 |  |  | 
6 | 1CP-151 (antibody, human IgG1, kappa, V domains shown, humanized 8C9, human IgG1 kappa) VH: EVQLVESGGGLVQPGRSLRLSCTASGLTFTHYHMSWFRQAPGKGLEWVAIIRNKAYGYTTDYSASVRGRFTISRDDSKSILYLQMNSLKTEDTAVYYCVREGGYGYDGTFAYWGQGTLVTVSS VL: DIQMTQSPSSLSASVGDRVTITCRASESVDNYGISFMNWFQQKPGQAPKLLIYAASNQGSGVPSRFSGSGSGTDFTLTISSMQPEDFATYYCQQSKEVPRTFGGGTKVEIKR |  |  |  | 19.1 | 0.00302 | 158000
7 | 1CP-153 (antibody, human IgG1, kappa, V domains shown, humanized 8C9, human IgG1 kappa) VH: EVQLVESGGGLVQPGRSLRLSCTTSGLTFTHYHMSWVRQAPGKGPEWVAIIRNKAYGYTTDYSASVRGRFTISRDDSKSILYLQMNSLKTEDTAVYYCVREGGYGYDGTFAYWGQGTLVTVSS VL: DIQMTQSPSSLSASVGDRVTITCRASESVDNYGISFMNWFQQKPGQAPKLLIYAASNQGSGVPSRFSGSGSGTDFTLTISSMQPEDFATYYCQQSKEVPRTFGGGTKVEIKR |  |  |  | 3.58 | 0.000388 | 108000
8 | 1CP-154 (antibody, human IgG1, kappa, V domains shown, humanized 8C9, human IgG1 kappa) VH: EVQLVESGGGLVQPGRSLRLSCTTSGLTFTHYHMSWVRQPPGKAPEWVAIIRNKAYGYTTDYSASVRGRFTISRDDSKSILYLQMNSLKTEDTAVYYCVREGGYGYDGTFAYWGQGTLVTVSS VL: DIQMTQSPSSLSASVGDRVTITCRASESVDNYGISFMNWFQQKPGQAPKLLIYAASNQGSGVPSRFSGSGSGTDFTLTISSMQPEDFATYYCQQSKEVPRTFGGGTKVEIKR |  |  |  | 2.92 | 0.000346 | 118000
9 | 1CP-155 (antibody, human IgG1, kappa, V domains shown, humanized 8C9, human IgG1 kappa) VH: EVQLVESGGGLVQPGRSLRLSCTASGLTFTHYHMSWFRQAPGKGLEWVAIIRNKAYGYTTDYSASVRGRFTISRDDSKSILYLQMNSLKTEDTAVYYCVREGGYGYDGTFAYWGQGTLVTVSS VL: DIQMTQSPSSLSASVGDRVTITCRASESVDNYGISFMNWFQQKPGQPPKLLIYAASNQGSGVPSRFSGSGSGTDFTLTISSMQPEDFATYYCQQSKEVPRTFGGGTKVEIKR |  |  |  | 36.6 | 0.000579 | 15800
10 | 1CP-158 (antibody, human IgG1, kappa, V domains shown, humanized 8C9, human IgG1 kappa) VH: EVQLVESGGGLVQPGRSLRLSCTTSGLTFTHYHMSWVRQPPGKAPEWVAIIRNKAYGYTTDYSASVRGRFTISRDDSKSILYLQMNSLKTEDTAVYYCVREGGYGYDGTFAYWGQGTLVTVSS VL: DIQMTQSPSSLSASVGDRVTITCRASESVDNYGISFMNWFQQKPGQPPKLLIYAASNQGSGVPSRFSGSGSGTDFTLTISSMQPEDFATYYCQQSKEVPRTFGGGTKVEIKR |  |  |  | 2.96 | 0.000321 | 109000
11 | 1CP-159 (antibody, human IgG1, kappa, V domains shown, humanized 8C9, human IgG1 kappa) VH: EVQLVESGGGLVQPGRSLRLSCTASGLTFTHYHMSWFRQAPGKGLEWVAIIRNKAYGYTTDYSASVRGRFTISRDDSKSILYLQMNSLKTEDTAVYYCVREGGYGYDGTFAYWGQGTLVTVSS VL: DIQMTQSPSSLSASVGDRVTITCRASESVDNYGISFMNWFQQKPGQPPKLLIYAASNQGSGVPSRFSGSGSGTDFTLTISSMQPEDFATYFCQQSKEVPRTFGGGTKVEIKR |  |  |  | 42.5 | 0.000767 | 18000
12 | 1CP-160 (antibody, human IgG1, kappa, V domains shown, humanized 8C9, human IgG1 kappa) VH: EVQLVESGGGLVQPGRSLRLSCTTSGLTFTHYHMSWVRQAPGKGLEWVAIIRNKAYGYTTDYSASVRGRFTISRDDSKSILYLQMNSLKTEDTAVYYCVREGGYGYDGTFAYWGQGTLVTVSS VL: DIQMTQSPSSLSASVGDRVTITCRASESVDNYGISFMNWFQQKPGQPPKLLIYAASNQGSGVPSRFSGSGSGTDFTLTISSMQPEDFATYFCQQSKEVPRTFGGGTKVEIKR |  |  |  | 3.8 | 0.00042 | 110000
13 | 1CP-161 (antibody, human IgG1, kappa, V domains shown, humanized 8C9, human IgG1 kappa) VH: EVQLVESGGGLVQPGRSLRLSCTTSGLTFTHYHMSWVRQAPGKGPEWVAIIRNKAYGYTTDYSASVRGRFTISRDDSKSILYLQMNSLKTEDTAVYYCVREGGYGYDGTFAYWGQGTLVTVSS VL: DIQMTQSPSSLSASVGDRVTITCRASESVDNYGISFMNWFQQKPGQPPKLLIYAASNQGSGVPSRFSGSGSGTDFTLTISSMQPEDFATYFCQQSKEVPRTFGGGTKVEIKR |  |  |  | 3.21 | 0.000365 | 114000
14 | 1CP-162 (antibody, human IgG1, kappa, V domains shown, humanized 8C9, human IgG1 kappa) VH: EVQLVESGGGLVQPGRSLRLSCTTSGLTFTHYHMSWVRQPPGKAPEWVAIIRNKAYGYTTDYSASVRGRFTISRDDSKSILYLQMNSLKTEDTAVYYCVREGGYGYDGTFAYWGQGTLVTVSS VL: DIQMTQSPSSLSASVGDRVTITCRASESVDNYGISFMNWFQQKPGQPPKLLIYAASNQGSGVPSRFSGSGSGTDFTLTISSMQPEDFATYFCQQSKEVPRTFGGGTKVEIKR |  |  |  | 2.7 | 0.000305 | 113000
